T1: amphyphisin SH3 (AMPH_HUMAN), P49418
T1 chain: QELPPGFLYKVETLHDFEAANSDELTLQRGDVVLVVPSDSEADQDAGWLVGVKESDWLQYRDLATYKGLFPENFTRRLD

The first assay addresses T1, amphyphisin SH3 (AMPH_HUMAN), P49418. Kind of assay: SPOT array.
On to GTRAPQRPKRESRG [Q9H7I4 14-27], for which the normalised SPOT signal, Boehringer light units (BLU); mean over the file's lines of this peptide turned out to be 11400.

GWGSPGRPKKKHTG [O94987 842-855]: the normalised SPOT signal, Boehringer light units (BLU); mean over the file's lines of this peptide was found to be 135.

GYTGPPRPPPYGYQ [Q15427 383-397] registered a normalised SPOT signal, Boehringer light units (BLU); mean over the file's lines of this peptide of 61.8.

As for GYDSLRRPGSRSKR [O43610 251-264], the normalised SPOT signal, Boehringer light units (BLU); mean over the file's lines of this peptide is 31.2.

Molecule GSVELRRPPAHQVM [Q15142 511-524] had a normalised SPOT signal, Boehringer light units (BLU); mean over the file's lines of this peptide of 55.2.

GVPVPKRPAEGGGG [Q9NY27 58-71] showed a normalised SPOT signal, Boehringer light units (BLU); mean over the file's lines of this peptide of 17.4.

Molecule GSSSPSRPPGLSSN [BAC05127 110-124] returned a normalised SPOT signal, Boehringer light units (BLU); mean over the file's lines of this peptide of 72.7.

As to HDDPPQKPPRSITL [Q9Y5K9 654-668], the normalised SPOT signal, Boehringer light units (BLU); mean over the file's lines of this peptide came to 8230.

Molecule ALPLPGRPARGVFY [Q9P025 127-140] displayed a normalised SPOT signal, Boehringer light units (BLU); mean over the file's lines of this peptide of 602.

GWRSLQRPARRSGR [Q99700 27-40] registered a normalised SPOT signal, Boehringer light units (BLU); mean over the file's lines of this peptide of 2550.

Molecule ALPLPRRPSALPPK [Q96MH8 48-61] returned a normalised SPOT signal, Boehringer light units (BLU); mean over the file's lines of this peptide of 151.

Take HGKGFSRPARPANR [O43158 529-542]: the normalised SPOT signal, Boehringer light units (BLU); mean over the file's lines of this peptide turned out to be 3230.

On to GYQAFRRPSYSWGV [O14842 113-126], for which the normalised SPOT signal, Boehringer light units (BLU); mean over the file's lines of this peptide is 35.

In turn, GTLPPPRPRREGRS [Q9H7L8 148-161] yielded a normalised SPOT signal, Boehringer light units (BLU); mean over the file's lines of this peptide of 5470.

As for GYDRLRRPGSRSKH [Q9C004 264-277], the normalised SPOT signal, Boehringer light units (BLU); mean over the file's lines of this peptide came to 30.6.

ALPHFRRPFFEEAA [Q9HCI5 739-752] displayed a normalised SPOT signal, Boehringer light units (BLU); mean over the file's lines of this peptide of 43.2.

In turn, GSQVPERPPKPFPR [P22681 815-829] displayed a normalised SPOT signal, Boehringer light units (BLU); mean over the file's lines of this peptide of 1710.

Take GTYQLRRPEDRPAG [Q96AB7 34-47]: the normalised SPOT signal, Boehringer light units (BLU); mean over the file's lines of this peptide turned out to be 14.3.

In turn, GWIQPRRPRDPTPS [Q14137 202-215] registered a normalised SPOT signal, Boehringer light units (BLU); mean over the file's lines of this peptide of 76.8.

For GVISLKRPFINLTA [Q9NYQ8 617-630], the normalised SPOT signal, Boehringer light units (BLU); mean over the file's lines of this peptide stood at 16.4.

GTVELRRPGQSHAA [Q9NVM4 598-611] had a normalised SPOT signal, Boehringer light units (BLU); mean over the file's lines of this peptide of 29.

For the molecule HSDYLNRPHKSIHR [P21675 1363-1376], the normalised SPOT signal, Boehringer light units (BLU); mean over the file's lines of this peptide was 116.

For GSSALKRPFEDGLG [Q9BXG4 352-365], the normalised SPOT signal, Boehringer light units (BLU); mean over the file's lines of this peptide turned out to be 27.5.

Molecule HAQSLSRPLKQTPI [O60292 454-467] came in with a normalised SPOT signal, Boehringer light units (BLU); mean over the file's lines of this peptide of 58.3.

In turn, GWGSPRRPTEAEAR [Q14767 91-104] registered a normalised SPOT signal, Boehringer light units (BLU); mean over the file's lines of this peptide of 23.4.

Consider GWATPRRPAGLLML [O60449 4-17], for which the normalised SPOT signal, Boehringer light units (BLU); mean over the file's lines of this peptide came to 48.3.

GVSKPRKPPMVMTP [Q9Y6X0 438-452] had a normalised SPOT signal, Boehringer light units (BLU); mean over the file's lines of this peptide of 58.3.

GTGSPARPPTPAQV [Q9Y4Y7 208-222] had a normalised SPOT signal, Boehringer light units (BLU); mean over the file's lines of this peptide of 85.9.

Consider GTVYPKRPEKPVPP [Q9Y5K6 406-419], for which the normalised SPOT signal, Boehringer light units (BLU); mean over the file's lines of this peptide was found to be 42.9.

Consider GTQELRRPAQLRLQ [P98161 595-608], for which the normalised SPOT signal, Boehringer light units (BLU); mean over the file's lines of this peptide worked out at 47.4.

Regarding GYPAFKRPHMTAKD [Q96LM6 67-80], the normalised SPOT signal, Boehringer light units (BLU); mean over the file's lines of this peptide was 31.1.

Turning to GSWSPMRPKKEAMK [O75928 422-435], the normalised SPOT signal, Boehringer light units (BLU); mean over the file's lines of this peptide turned out to be 168.

GYGLLVRPSRVRRA [O75134 505-518] displayed a normalised SPOT signal, Boehringer light units (BLU); mean over the file's lines of this peptide of 2560.

With HAPRIKRPRLQVVK [Q96S08 292-305], the normalised SPOT signal, Boehringer light units (BLU); mean over the file's lines of this peptide was found to be 36.2.

Consider GSVHPVRPMRLESF [P26022 194-207], for which the normalised SPOT signal, Boehringer light units (BLU); mean over the file's lines of this peptide turned out to be 9890.

In the case of GTPKPKRPAILTYH [Q9UN36 56-69], the normalised SPOT signal, Boehringer light units (BLU); mean over the file's lines of this peptide was found to be 33.4.

HALHPARPARDHLD [Q9H7M8 395-408] had a normalised SPOT signal, Boehringer light units (BLU); mean over the file's lines of this peptide of 4580.

In turn, GTRQLGRPKRSPRS [P01266 150-163] showed a normalised SPOT signal, Boehringer light units (BLU); mean over the file's lines of this peptide of 148.

For the next assay, the target named is endophilin SH3 (SH3G2_HUMAN), Q99962. Kind of assay: SPOT array.
In turn, GTRAPQRPKRESRG [Q9H7I4 14-27] showed a normalised SPOT signal, Boehringer light units (BLU); mean over the file's lines of this peptide of 1420.

Turning to GWGSPGRPKKKHTG [O94987 842-855], the normalised SPOT signal, Boehringer light units (BLU); mean over the file's lines of this peptide worked out at 317.

Molecule GYTGPPRPPPYGYQ [Q15427 383-397] came in with a normalised SPOT signal, Boehringer light units (BLU); mean over the file's lines of this peptide of 577.

GYDSLRRPGSRSKR [O43610 251-264] displayed a normalised SPOT signal, Boehringer light units (BLU); mean over the file's lines of this peptide of 141.

GSVELRRPPAHQVM [Q15142 511-524] came in with a normalised SPOT signal, Boehringer light units (BLU); mean over the file's lines of this peptide of 52.2.

Turning to GVPVPKRPAEGGGG [Q9NY27 58-71], the normalised SPOT signal, Boehringer light units (BLU); mean over the file's lines of this peptide amounted to 88.7.

In turn, GSSSPSRPPGLSSN [BAC05127 110-124] registered a normalised SPOT signal, Boehringer light units (BLU); mean over the file's lines of this peptide of 318.

With HDDPPQKPPRSITL [Q9Y5K9 654-668], the normalised SPOT signal, Boehringer light units (BLU); mean over the file's lines of this peptide stood at 133.

ALPLPGRPARGVFY [Q9P025 127-140] had a normalised SPOT signal, Boehringer light units (BLU); mean over the file's lines of this peptide of 1290.

GWRSLQRPARRSGR [Q99700 27-40]: the normalised SPOT signal, Boehringer light units (BLU); mean over the file's lines of this peptide was found to be 39.1.

ALPLPRRPSALPPK [Q96MH8 48-61] had a normalised SPOT signal, Boehringer light units (BLU); mean over the file's lines of this peptide of 5800.

HGKGFSRPARPANR [O43158 529-542] gave a normalised SPOT signal, Boehringer light units (BLU); mean over the file's lines of this peptide of 5.2.

Molecule GYQAFRRPSYSWGV [O14842 113-126] yielded a normalised SPOT signal, Boehringer light units (BLU); mean over the file's lines of this peptide of 229.

In the case of GTLPPPRPRREGRS [Q9H7L8 148-161], the normalised SPOT signal, Boehringer light units (BLU); mean over the file's lines of this peptide was determined as 3720.

The molecule GYDRLRRPGSRSKH [Q9C004 264-277] came in with a normalised SPOT signal, Boehringer light units (BLU); mean over the file's lines of this peptide of 142.

As to ALPHFRRPFFEEAA [Q9HCI5 739-752], the normalised SPOT signal, Boehringer light units (BLU); mean over the file's lines of this peptide was determined as 95.9.

GSQVPERPPKPFPR [P22681 815-829]: the normalised SPOT signal, Boehringer light units (BLU); mean over the file's lines of this peptide turned out to be 13600.

With GTYQLRRPEDRPAG [Q96AB7 34-47], the normalised SPOT signal, Boehringer light units (BLU); mean over the file's lines of this peptide turned out to be 21.7.

GWIQPRRPRDPTPS [Q14137 202-215] yielded a normalised SPOT signal, Boehringer light units (BLU); mean over the file's lines of this peptide of 836.

Consider GVISLKRPFINLTA [Q9NYQ8 617-630], for which the normalised SPOT signal, Boehringer light units (BLU); mean over the file's lines of this peptide was determined as 35.8.

Turning to GTVELRRPGQSHAA [Q9NVM4 598-611], the normalised SPOT signal, Boehringer light units (BLU); mean over the file's lines of this peptide turned out to be 42.6.

Turning to HSDYLNRPHKSIHR [P21675 1363-1376], the normalised SPOT signal, Boehringer light units (BLU); mean over the file's lines of this peptide was 89.2.

Take GSSALKRPFEDGLG [Q9BXG4 352-365]: the normalised SPOT signal, Boehringer light units (BLU); mean over the file's lines of this peptide came to 39.6.

HAQSLSRPLKQTPI [O60292 454-467] yielded a normalised SPOT signal, Boehringer light units (BLU); mean over the file's lines of this peptide of 153.

In the case of GWGSPRRPTEAEAR [Q14767 91-104], the normalised SPOT signal, Boehringer light units (BLU); mean over the file's lines of this peptide came to 194.

Consider GWATPRRPAGLLML [O60449 4-17], for which the normalised SPOT signal, Boehringer light units (BLU); mean over the file's lines of this peptide came out at 247.

In turn, GVSKPRKPPMVMTP [Q9Y6X0 438-452] gave a normalised SPOT signal, Boehringer light units (BLU); mean over the file's lines of this peptide of 328.

Consider GTGSPARPPTPAQV [Q9Y4Y7 208-222], for which the normalised SPOT signal, Boehringer light units (BLU); mean over the file's lines of this peptide is 2420.

Regarding GTVYPKRPEKPVPP [Q9Y5K6 406-419], the normalised SPOT signal, Boehringer light units (BLU); mean over the file's lines of this peptide worked out at 962.

GTQELRRPAQLRLQ [P98161 595-608] displayed a normalised SPOT signal, Boehringer light units (BLU); mean over the file's lines of this peptide of 45.8.

GYPAFKRPHMTAKD [Q96LM6 67-80] gave a normalised SPOT signal, Boehringer light units (BLU); mean over the file's lines of this peptide of 97.4.

GSWSPMRPKKEAMK [O75928 422-435]: the normalised SPOT signal, Boehringer light units (BLU); mean over the file's lines of this peptide is 1880.

With GYGLLVRPSRVRRA [O75134 505-518], the normalised SPOT signal, Boehringer light units (BLU); mean over the file's lines of this peptide turned out to be 747.

Molecule HAPRIKRPRLQVVK [Q96S08 292-305] showed a normalised SPOT signal, Boehringer light units (BLU); mean over the file's lines of this peptide of 33.2.

Turning to GSVHPVRPMRLESF [P26022 194-207], the normalised SPOT signal, Boehringer light units (BLU); mean over the file's lines of this peptide is 2470.

Consider GTPKPKRPAILTYH [Q9UN36 56-69], for which the normalised SPOT signal, Boehringer light units (BLU); mean over the file's lines of this peptide was found to be 1130.

Turning to HALHPARPARDHLD [Q9H7M8 395-408], the normalised SPOT signal, Boehringer light units (BLU); mean over the file's lines of this peptide was 1270.

For the molecule GTRQLGRPKRSPRS [P01266 150-163], the normalised SPOT signal, Boehringer light units (BLU); mean over the file's lines of this peptide came out at 152.

Source of the values: article PMC314469, “Protein Interaction Networks by Proteome Peptide Scanning” (PLoS Biology, 2004).
